{"source": "the Human Domainome abundance scans (Beltran et al. 2025)", "parents": {"B1": {"name": "Histone H1t, residues 44 to 112; numbered along this chain, P22492 (parent)", "chain": "VSKLITEALSVSQERVGMSLVALKKALAAAGYDVEKNNSRIKLSLKSLVNKGILVQTRGTGASGSFKLS"}}, "note": "± gives the uncertainty stated by the source.", "data": [{"variants_of": "B1", "experiment": "abundance fitness (aPCA) (normalised: wild type 0, dead -1); higher = more abundant; growth selection in yeast, the domain comes from the species named", "conditions": "Homo sapiens", "values": [{"variant": "K36H", "abundance fitness": "-0.432 ± 0.073"}, {"variant": "R40M", "abundance fitness": "-0.215 ± 0.18"}, {"variant": "G31E", "abundance fitness": "-0.89 ± 0.3"}, {"variant": "G31F", "abundance fitness": "-0.285 ± 0.067"}, {"variant": "G31P", "abundance fitness": "-0.434 ± 0.048"}, {"variant": "G31H", "abundance fitness": "-0.366 ± 0.082"}, {"variant": "R58Y", "abundance fitness": "-0.246 ± 0.076"}, {"variant": "R58G", "abundance fitness": "0.205 ± 0.03"}, {"variant": "R58P", "abundance fitness": "-0.02 ± 0.034"}, {"variant": "R58H", "abundance fitness": "-0.041 ± 0.065"}, {"variant": "G64W", "abundance fitness": "-0.097 ± 0.039"}, {"variant": "G64A", "abundance fitness": "0.196 ± 0.051"}, {"variant": "G64Q", "abundance fitness": "0.085 ± 0.055"}, {"variant": "G64S", "abundance fitness": "0.046 ± 0.03"}, {"variant": "G64T", "abundance fitness": "0.11 ± 0.04"}, {"variant": "E7R", "abundance fitness": "0.032 ± 0.16"}, {"variant": "E7D", "abundance fitness": "-0.101 ± 0.073"}, {"variant": "E7M", "abundance fitness": "-0.63 ± 0.052"}, {"variant": "A30L", "abundance fitness": "-0.224 ± 0.032"}, {"variant": "A30G", "abundance fitness": "-0.162 ± 0.045"}, {"variant": "A30V", "abundance fitness": "-0.158 ± 0.036"}, {"variant": "A30C", "abundance fitness": "-0.136 ± 0.059"}, {"variant": "A30Y", "abundance fitness": "-0.266 ± 0.07"}, {"variant": "T57L", "abundance fitness": "-0.026 ± 0.026"}, {"variant": "T57H", "abundance fitness": "-0.001 ± 0.041"}, {"variant": "T57S", "abundance fitness": "-0.039 ± 0.033"}, {"variant": "T57A", "abundance fitness": "0.024 ± 0.044"}, {"variant": "V21L", "abundance fitness": "-0.062 ± 0.027"}, {"variant": "V21C", "abundance fitness": "-0.164 ± 0.11"}, {"variant": "V21Q", "abundance fitness": "0.181 ± 0.055"}, {"variant": "V21E", "abundance fitness": "0.038 ± 0.14"}, {"variant": "V21H", "abundance fitness": "0.061 ± 0.044"}, {"variant": "L20V", "abundance fitness": "-0.048 ± 0.036"}, {"variant": "L20F", "abundance fitness": "0.013 ± 0.032"}, {"variant": "L20R", "abundance fitness": "-0.537 ± 0.045"}, {"variant": "T6V", "abundance fitness": "-0.153 ± 0.082"}, {"variant": "T6I", "abundance fitness": "-0.071 ± 0.098"}, {"variant": "T6H", "abundance fitness": "-0.05 ± 0.25"}, {"variant": "S39E", "abundance fitness": "0.148 ± 0.052"}, {"variant": "S39A", "abundance fitness": "-0.005 ± 0.04"}, {"variant": "S39R", "abundance fitness": "-0.327 ± 0.049"}, {"variant": "S39H", "abundance fitness": "-0.089 ± 0.085"}, {"variant": "V49I", "abundance fitness": "-0.026 ± 0.054"}, {"variant": "V49K", "abundance fitness": "-0.173 ± 0.044"}, {"variant": "L23H", "abundance fitness": "-1.05 ± 0.093"}, {"variant": "Q13E", "abundance fitness": "-0.05 ± 0.14"}, {"variant": "Q13F", "abundance fitness": "-0.613 ± 0.041"}, {"variant": "L68W", "abundance fitness": "-0.121 ± 0.041"}, {"variant": "L68T", "abundance fitness": "-0.067 ± 0.061"}, {"variant": "I41P", "abundance fitness": "-0.394 ± 0.035"}, {"variant": "I41Q", "abundance fitness": "-0.556 ± 0.049"}, {"variant": "D33R", "abundance fitness": "0.036 ± 0.065"}, {"variant": "K46Y", "abundance fitness": "-0.895 ± 0.14"}, {"variant": "N37T", "abundance fitness": "-0.522 ± 0.33"}, {"variant": "N37H", "abundance fitness": "0.093 ± 0.24"}, {"variant": "N37G", "abundance fitness": "-0.091 ± 0.12"}, {"variant": "N37Y", "abundance fitness": "-0.289 ± 0.38"}, {"variant": "V55N", "abundance fitness": "-0.102 ± 0.079"}, {"variant": "V55M", "abundance fitness": "0.002 ± 0.035"}, {"variant": "V55W", "abundance fitness": "-0.297 ± 0.063"}, {"variant": "V55Y", "abundance fitness": "-0.15 ± 0.059"}, {"variant": "V55G", "abundance fitness": "0.056 ± 0.069"}, {"variant": "I53L", "abundance fitness": "-0.067 ± 0.029"}, {"variant": "I53M", "abundance fitness": "-0.054 ± 0.048"}, {"variant": "I53S", "abundance fitness": "-0.081 ± 0.038"}, {"variant": "A8F", "abundance fitness": "-0.217 ± 0.029"}, {"variant": "A8H", "abundance fitness": "-0.324 ± 0.11"}, {"variant": "A8T", "abundance fitness": "-0.447 ± 0.14"}, {"variant": "A8P", "abundance fitness": "-1.06 ± 0.22"}, {"variant": "K25T", "abundance fitness": "-0.352 ± 0.062"}, {"variant": "K25P", "abundance fitness": "-1.34 ± 0.21"}, {"variant": "K25E", "abundance fitness": "-0.085 ± 0.048"}, {"variant": "G17H", "abundance fitness": "-0.116 ± 0.066"}, {"variant": "G17L", "abundance fitness": "-0.478 ± 0.036"}, {"variant": "S65N", "abundance fitness": "0.008 ± 0.073"}, {"variant": "S65F", "abundance fitness": "-0.146 ± 0.17"}, {"variant": "N50Q", "abundance fitness": "0.066 ± 0.068"}, {"variant": "N50Y", "abundance fitness": "-0.092 ± 0.26"}, {"variant": "G61H", "abundance fitness": "-0.006 ± 0.063"}, {"variant": "G61E", "abundance fitness": "-0.032 ± 0.064"}, {"variant": "G61C", "abundance fitness": "-0.018 ± 0.054"}, {"variant": "G61F", "abundance fitness": "-0.16 ± 0.085"}, {"variant": "L45A", "abundance fitness": "-0.643 ± 0.082"}, {"variant": "L45V", "abundance fitness": "-0.141 ± 0.11"}, {"variant": "L45Q", "abundance fitness": "-0.782 ± 0.24"}, {"variant": "L45S", "abundance fitness": "-0.742 ± 0.046"}, {"variant": "A29T", "abundance fitness": "-0.04 ± 0.052"}, {"variant": "L54N", "abundance fitness": "-0.249 ± 0.095"}, {"variant": "Y32T", "abundance fitness": "-0.193 ± 0.036"}, {"variant": "L43Q", "abundance fitness": "0.172 ± 0.027"}, {"variant": "K24P", "abundance fitness": "-1.22 ± 0.12"}, {"variant": "K24T", "abundance fitness": "-0.267 ± 0.047"}, {"variant": "K24N", "abundance fitness": "-0.359 ± 0.056"}, {"variant": "K24Y", "abundance fitness": "-0.164 ± 0.069"}, {"variant": "K24L", "abundance fitness": "-0.418 ± 0.039"}, {"variant": "E35F", "abundance fitness": "-0.307 ± 0.047"}, {"variant": "S63K", "abundance fitness": "-0.019 ± 0.043"}, {"variant": "S63E", "abundance fitness": "0.152 ± 0.063"}, {"variant": "S63F", "abundance fitness": "-0.028 ± 0.051"}, {"variant": "S63P", "abundance fitness": "-0.027 ± 0.033"}, {"variant": "S63G", "abundance fitness": "0.085 ± 0.044"}, {"variant": "T60D", "abundance fitness": "0.133 ± 0.078"}, {"variant": "T60Q", "abundance fitness": "-0.02 ± 0.037"}, {"variant": "T60M", "abundance fitness": "0.062 ± 0.04"}, {"variant": "T60P", "abundance fitness": "0.025 ± 0.029"}, {"variant": "T60E", "abundance fitness": "-0.012 ± 0.074"}, {"variant": "S12C", "abundance fitness": "0.024 ± 0.067"}, {"variant": "S12A", "abundance fitness": "-0.007 ± 0.08"}, {"variant": "S10Y", "abundance fitness": "-0.286 ± 0.04"}, {"variant": "S10W", "abundance fitness": "-0.788 ± 0.13"}, {"variant": "S10V", "abundance fitness": "-0.167 ± 0.058"}, {"variant": "S10Q", "abundance fitness": "-0.165 ± 0.12"}, {"variant": "S69L", "abundance fitness": "-0.128 ± 0.035"}, {"variant": "S69Y", "abundance fitness": "0.171 ± 0.08"}, {"variant": "S69A", "abundance fitness": "0.044 ± 0.049"}, {"variant": "A28S", "abundance fitness": "-0.114 ± 0.053"}, {"variant": "I5P", "abundance fitness": "-1.16 ± 0.19"}, {"variant": "I5W", "abundance fitness": "-0.46 ± 0.072"}, {"variant": "I5C", "abundance fitness": "-0.415 ± 0.083"}, {"variant": "L27D", "abundance fitness": "-0.677 ± 0.091"}, {"variant": "L27K", "abundance fitness": "-0.999 ± 0.063"}, {"variant": "S47F", "abundance fitness": "-0.41 ± 0.1"}, {"variant": "K3D", "abundance fitness": "-0.144 ± 0.1"}, {"variant": "R15D", "abundance fitness": "0.096 ± 0.13"}, {"variant": "R15K", "abundance fitness": "0.234 ± 0.069"}, {"variant": "A22T", "abundance fitness": "-0.305 ± 0.22"}, {"variant": "A22Y", "abundance fitness": "-0.034 ± 0.1"}, {"variant": "L9Y", "abundance fitness": "-0.1 ± 0.039"}, {"variant": "V34S", "abundance fitness": "-0.199 ± 0.035"}, {"variant": "V34H", "abundance fitness": "-0.4 ± 0.092"}, {"variant": "V34D", "abundance fitness": "-0.327 ± 0.11"}, {"variant": "V34Y", "abundance fitness": "-0.472 ± 0.12"}, {"variant": "V34P", "abundance fitness": "-0.212 ± 0.037"}, {"variant": "F66Y", "abundance fitness": "-0.046 ± 0.063"}, {"variant": "F66G", "abundance fitness": "-0.127 ± 0.064"}, {"variant": "F66K", "abundance fitness": "-0.042 ± 0.044"}, {"variant": "F66T", "abundance fitness": "-0.129 ± 0.035"}, {"variant": "F66P", "abundance fitness": "-0.112 ± 0.033"}, {"variant": "L48Q", "abundance fitness": "-0.643 ± 0.075"}, {"variant": "L48E", "abundance fitness": "-0.784 ± 0.18"}, {"variant": "L48Y", "abundance fitness": "-0.624 ± 0.061"}, {"variant": "K51T", "abundance fitness": "-0.212 ± 0.051"}, {"variant": "E14Y", "abundance fitness": "-0.67 ± 0.056"}, {"variant": "G59S", "abundance fitness": "-0.113 ± 0.033"}, {"variant": "G59I", "abundance fitness": "0.119 ± 0.07"}, {"variant": "G59V", "abundance fitness": "-0.09 ± 0.04"}, {"variant": "G59P", "abundance fitness": "-0.138 ± 0.03"}, {"variant": "G59M", "abundance fitness": "-0.152 ± 0.042"}, {"variant": "S19K", "abundance fitness": "-0.021 ± 0.049"}, {"variant": "S19G", "abundance fitness": "0.147 ± 0.061"}, {"variant": "S19W", "abundance fitness": "-0.145 ± 0.051"}, {"variant": "S19P", "abundance fitness": "-0.324 ± 0.073"}, {"variant": "V16D", "abundance fitness": "0.347 ± 0.19"}, {"variant": "V16P", "abundance fitness": "-0.416 ± 0.059"}, {"variant": "M18D", "abundance fitness": "-0.359 ± 0.11"}, {"variant": "M18N", "abundance fitness": "0.016 ± 0.077"}, {"variant": "M18K", "abundance fitness": "0.238 ± 0.051"}, {"variant": "V1H", "abundance fitness": "-0.877 ± 0.43"}, {"variant": "K67I", "abundance fitness": "-0.192 ± 0.06"}, {"variant": "K42L", "abundance fitness": "0.048 ± 0.031"}, {"variant": "S44M", "abundance fitness": "-0.047 ± 0.065"}, {"variant": "S44R", "abundance fitness": "-0.173 ± 0.12"}, {"variant": "S44Y", "abundance fitness": "-0.279 ± 0.072"}, {"variant": "V11R", "abundance fitness": "-0.013 ± 0.047"}, {"variant": "V11W", "abundance fitness": "-0.04 ± 0.041"}, {"variant": "A62T", "abundance fitness": "-0.006 ± 0.026"}, {"variant": "A62Q", "abundance fitness": "0.021 ± 0.025"}]}]}
